According to patent US20210221894A1 (DRAGONFLY THERAPEUTICS, published 2021):

T1: human DLL3-His (human, UniProt Q9NYJ7 27-492)
T1 construct: also called hDLL3
T1 sequence: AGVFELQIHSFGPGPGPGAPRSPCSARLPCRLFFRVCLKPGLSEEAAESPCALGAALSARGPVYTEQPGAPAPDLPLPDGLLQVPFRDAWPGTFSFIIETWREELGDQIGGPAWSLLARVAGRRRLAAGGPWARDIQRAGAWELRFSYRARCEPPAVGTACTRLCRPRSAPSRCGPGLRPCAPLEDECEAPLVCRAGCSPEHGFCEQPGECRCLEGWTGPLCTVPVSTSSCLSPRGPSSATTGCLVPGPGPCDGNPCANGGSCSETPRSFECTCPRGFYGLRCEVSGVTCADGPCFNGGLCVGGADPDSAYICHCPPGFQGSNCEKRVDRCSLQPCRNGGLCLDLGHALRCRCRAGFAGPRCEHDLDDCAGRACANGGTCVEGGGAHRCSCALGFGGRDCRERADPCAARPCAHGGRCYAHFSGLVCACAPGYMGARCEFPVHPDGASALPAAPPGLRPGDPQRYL

T2: full-length form of the extracellular portion of DLL3 expressed on transduced RPMI-8226 cells (Homo sapiens (Human), UniProt Q9NYJ7 27-492)
T2 construct: also called DLL3-D1-6; DLL3+ RPMI-8226 cells
T2 sequence: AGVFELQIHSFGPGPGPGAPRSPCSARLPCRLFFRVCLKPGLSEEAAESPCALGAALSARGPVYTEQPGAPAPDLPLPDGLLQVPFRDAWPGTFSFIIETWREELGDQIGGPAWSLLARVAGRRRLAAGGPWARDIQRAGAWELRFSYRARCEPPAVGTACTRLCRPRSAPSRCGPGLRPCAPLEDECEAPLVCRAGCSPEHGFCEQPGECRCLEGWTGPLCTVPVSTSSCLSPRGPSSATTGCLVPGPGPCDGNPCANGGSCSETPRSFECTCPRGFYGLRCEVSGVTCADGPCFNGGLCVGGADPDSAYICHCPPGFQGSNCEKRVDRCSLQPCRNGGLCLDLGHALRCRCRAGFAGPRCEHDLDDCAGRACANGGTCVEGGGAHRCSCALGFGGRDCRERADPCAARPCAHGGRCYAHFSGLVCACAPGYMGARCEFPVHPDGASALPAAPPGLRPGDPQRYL


Legend:
[1] = target: T1, human DLL3-His; assay: SPR (Biacore 8K), 37 C, antibody captured on anti-human Fc, DLL3-His 0.411-300 nM injected, 1:1 fit
Text: The kinetics of binding of different humanized variants and parental murine 5E7 antibody to human DLL3-His was studied by Surface Plasmon Resonance using a Biacore 8K instrument. Briefly, anti-hFc and anti-mFc IgG proteins were covalently immobilized onto different channels of CMS chip to allow simultaneous analysis of human and murine antibodies. m5E7 was captured on the anti-mouse Fc channel and humanized variants were captured on the anti-human Fc channel at a desired capture level of […] in HBS-EP+ buffer supplemented with 0.1% BSA. Three buffer blanks and human DLL3-His (analyte) at concentrations 0.411-300 nM (in three fold dilutions) were injected over the surface with captured murine or humanized 5E7 for 300 second association time and let dissociate for 600 second at a flow rate of 30 μL/min. The surfaces were subjected to regeneration with three 20-second pulses of 10 mM glycine pH 1.70 at a flow rate of 100 μL/min between every concentration of analyte. The experiment was conducted at 37° C. Data were double referenced and a 1:1 fit model was applied to the sensorgrams in the Biacore Insight Evaluation software.
The kinetic parameters of human DLL3-His binding to murine and humanized variants of 5E7 antibody variants were calculated and shown in Table 39.

[2] = target: T2, full-length form of the extracellular …; assay: flow cytometry, RPMI-8226 cells transduced to express full-length extracellular DLL3, fluorophore-conjugated anti-human IgG
Protocol: Anti-DLL3 mAbs were diluted and incubated with DLL3⁺ RPMI-8226 cells. The cells were analyzed by flow cytometry and binding of a mAb was detected using a fluorophore conjugated anti-human IgG secondary antibody.

Row | Binder | Kd [1] | koff [1] | kon [1] | EC50 (read off the curve) [2]
1 | humanized anti-DLL3 antibody h5E7 (antibody, V domains shown, Expressed as IgG1 mAb: human IgG1 CH1-CH2-CH3 and human constant kappa) VH: QVQLVQSGAEVKKPGASVKVSCKASGFNIKDDYIHWVRQAPGQGLEWMGWIDSENGDTEYASKFQGRVTITADTSANTAYMELSSLRSEDTAVYYCATSSYYSYDLFVYWGQGTLVTVSS VL: DVQMTQSPSSLSASVGDRVTITCKSSQSLLHSNGKTYLNWLQQKPGQAPKLLLYLVSKLESGVPSRFSGSGSGTDYTLTISSLQPEDFATYYCLQTTHLYTFGQGTKLEIK | 8.72 nM | 0.00697 s⁻¹ | 799000 M⁻¹ s⁻¹ | ~7 nM
2 | chimeric protein of murine 5E7 variable regions and human IgG1/Igκ constant regions (antibody, V domains shown, VH cloned onto human IgG1 CH1-CH2-CH3, VL onto human constant kappa) VH: EVQLQQSGAELVRPGASVKLSCTASGFNIKDDYIHWVKQWPEQGLEWIGWIDSENGDTEYASKFQGKATMTADTSSNTAYLQLSGLTSEDTAVYYCTTSSYYSYDLFVYWGQGTLVTVSA VL: DVLMTQTPLTLSVPIGQPASISCKSSQSLLHSNGKTYLNWLLQRPGQSPKLLIYLVSKLESGVPDRFSGSGSGTDFTLKISRVEAEDLGVYYCLQTTHLYTFGGGTKLEIK |  |  |  | ~3 nM
